Test results: paper PMC9701186 (Nature Communications, 2022)

Legend:
[1] = target: Aigai virus strain Pentalofos GP38 (Aigai virus, strain Pentalofos, UniProt A0A2P1JMM7, strain); experiment: BLI; […]; antibody (1 µg/mL) […] (AHC) sensors; […]; 300 s association, 600 s dissociation; global 1:1 fit; conditions: both partners purified
[2] = target: Aigai virus strain Pentalofos GP38 (Aigai virus, strain Pentalofos, UniProt A0A2P1JMM7, strain); experiment: BLI; […]; mAb (1 µg/mL) […] (AHC) sensors; […]; 1× Octet kinetics buffer; global 1:1 fit; conditions: both partners purified

B1: human chimeric 13G8 mAb (c13G8) (antibody, V domains shown)
VH: DVQLQQSGPGLVAPSQSLSITCTVSGFSLTNYGIHWVRQPPGKGLEWLGVIWAGGYTKYNSALMSRLSMSKDNSKSQVFLKMNSLQTDDTAMYYCARDEVRRDYYAMDHWGQGTTVTVSS
VL: DIQMTQSPAILSASPGEKVTMTCWASSGVSYMHWYQQKPGSSPKPWIFATSNLASGVPARFSGSGSGTSYSLTISRVEAEDAATYYCQQWSFNPLTFGAGTKLEIK
notes: copies: 2 + 2
**Q.** Does B1 bind [1]?
**A.** Result: no binding (tested: 100nM)

B2: human chimeric 13G8 mAb (c13G8) (antibody, V domains shown)
VH: DVQLQQSGPGLVAPSQSLSITCTVSGFSLTNYGIHWVRQPPGKGLEWLGVIWAGGYTKYNSALMSRLSMSKDNSKSQVFLKMNSLQTDDTAMYYCARDEVRRDYYAMDHWGQGTTVTVSS
VL: DIQMTQSPAILSASPGEKVTMTCWASSGVSYMHWYQQKPGSSPKPWIFATSNLASGVPARFSGSGSGTSYSLTISRVEAEDAATYYCQQWSFNPLTFGAGTKLEIK
notes: source: Expi293 cells, purified (mAb Select Sure column)
**Q.** Does B2 bind [2]?
**A.** Result: no binding (tested: up to 20.0 nM GP38)

B3: CC5-17 mAb (antibody, V domains shown)
VH: EVQLVQSGAEVKKPGESLRISCKGSGYSFTSYWIGWVRQMPGKGLEWMGIIYPGDSDTRYSPSFQGQVTISADKSISTAYLQWTSLKASDTAMYYCARQLGGSSFGNYYDSGSYYTAAYWGQGTLVTVSS
VL: DIQMTQSPSSLSASVGDRVTITCRASQSINNYLNWYQQKPGKAPKLLIYAASTLQSGVPSRFSGSGSGTDFTLTISSLQPEDFASYYCQQSYRGTFGQGTKVEFK
notes: copies: 2 + 2
**Q.** Does B3 bind [1]?
**A.** Result: no binding (tested: 100nM)

B4: CC5-17 mAb (antibody, V domains shown)
VH: EVQLVQSGAEVKKPGESLRISCKGSGYSFTSYWIGWVRQMPGKGLEWMGIIYPGDSDTRYSPSFQGQVTISADKSISTAYLQWTSLKASDTAMYYCARQLGGSSFGNYYDSGSYYTAAYWGQGTLVTVSS
VL: DIQMTQSPSSLSASVGDRVTITCRASQSINNYLNWYQQKPGKAPKLLIYAASTLQSGVPSRFSGSGSGTDFTLTISSLQPEDFASYYCQQSYRGTFGQGTKVEFK
**Q.** Does B4 bind [2]?
**A.** Result: no binding (tested: up to 20.0 nM GP38)
